We go through 41 sequences from the nanobody polyreactivity screen of Harvey et al. (2022).

A short description of the data set: yeast display, Sf9 membrane polyspecificity reagent, FACS + sequencing; frameworks hold sequencing errors. An outline of the steps: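 Galactose induction of a Saccharomyces cerevisiae BJ5465 synthetic nanobody display library ran 36–48 hours. The cells were then stained for 1 hour at 4 °C with 10% biotinylated, detergent-solubilized Sf9 membrane reagent, pulled down on streptavidin microbeads and FACS-sorted into low and high (top ~1%) gates on expression and reagent-binding fluorescence. Labels for polyreactivity follow the gate of origin.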
For the sequence “QVQLVESGGGLVQAGGSLRLSCAASGSIFVGYAMGWYRQAPGKERELVAAIRWSGGSTYYADSVKGRFTISRDNAKNTVYLQMNSLKPEDTAVYYCAKYFPAGYYYWGQGTQVTVSS”, the “polyreactivity (PSR sort gate)” value is given as “low polyreactivity”.
In the case of “QVQLVESGGGLVQAGGSLRLSCAASGSIFVGYVMGWYRQAPGKERELVARIRWGGGRTYYADSVKGRFTISRDNAKNTVYLQMNSLKPEDTAVYYCNARYSYHSVGYWGQGTQVTVSS” it was “high polyreactivity”; in that of “QVQLVESGGGLVQAGGSLRLSCAASGSIFVINAMGWYRQAPGKERELVAAIDWSGDSTYYADSVKGRFTISRDNAKNTVYLQMNSLKPEDTAVYYCAADLDSRGTYGRYEYWGQGTQVTVSS”, “low polyreactivity”.
As for “QVQLVESGGGLVQAGGSLRLSCAASGSIFVIYAMGWYRQAPGKERELVAAITDSATTNYADSVKGRFTISRDNAKNTVYLQMNSLKPEDTAVYYCAAEYSSYPTAWSTYEFDYWGQGTQVTVSS”, the “polyreactivity (PSR sort gate)” value is recorded as “low polyreactivity”.
“QVQLVESGGGLVQAGGSLRLSCAASGSIFVIYTMGWYRQAPGKERELVAVITWSTGNTYYADSVKGRFTISRDNAKNTVYLQMNSLKPEDTAVYYCAARTTSRWRSCAYYYWGQGTQVTVSS”: the “polyreactivity (PSR sort gate)” value is on record as “high polyreactivity”.
“QVQLVESGGGLVQAGGSLRLSCAASGSIFVKNAMGWYRQAPGKERELVAAISRSGGSTYYADSVKGRFTISRDNAKYTVYLQMNSLKPEDTAVYYCNAYGSYWDFDEWGQGTQVTVSS”: the “polyreactivity (PSR sort gate)” value is recorded as “high polyreactivity”.
With “QVQLVESGGGLVQAGGSLRLSCAASGSIFVKNAMGWYRQAPGKERELVATISRRGGSTYYADSVKGRFTISRDNAKNTVYLQMNSLKPEDTAVYYCNRLGTTVSLEYYYWGQGTQVTVSS”, the “polyreactivity (PSR sort gate)” value is recorded as “high polyreactivity”.
“QVQLVESGGGLVQAGGSLRLSCAASGSIFVKYAMGWYRQATGKERELVASITGRGGSTYYADSVKGRFTISRDNAKNTVYFQMNSLIPEDTAVYYCAARVASRHGWHNYWGQGTQVTVSS”: the “polyreactivity (PSR sort gate)” value is recorded as “high polyreactivity”.
Regarding “QVQLVESGGGLVQAGGSLRLSCAASGSIFVLYAMGLYRQAPGTERELVAAITTGGGTNYADSVKGRFTISRDNAKNTVYLQINSLKPEDTAVYYCAADTGWYDDWTHDYWGQGTQVTVSS”, the “polyreactivity (PSR sort gate)” value is reported as “low polyreactivity”.
The same measure for “QVQLVESGGGLVQAGGSLRLSCAASGSIFVLYAMGWSRQAPGKERELVAAITTGGGTNYADSVKGRFTISRDNAKNTVYLQMNSLKPEDTAVYYCAAADSTWFDWGNYWYYYWGQGTQVTVSS”: “low polyreactivity”.
In the case of “QVQLVESGGGLVQAGGSLRLSCAASGSIFVNNAMGWYRQAHGKERELVAAISGSGSSTHYAHSVKGRFTISRDNAKNTVYLQMNSLKPEDTAVYYCNRGRRDLDFNYWGQGTQVTVSS” it was “low polyreactivity”; in that of “QVQLVESGGGLVQAGGSLRLSCAASGSIFVNYAMGWSRQAPGKERELVAAISRDGGRTYYADSVKGRFTISRDNAKNTVYLQMNSLKPEDTAVYYCNAVIPSTAYYRYGYWGQGTQVTVSS”, “high polyreactivity”.
The same measure for “QVQLVESGGGLVQAGGSLRLSCAASGSIFVNYAMGWYRQAPGKERELVAAISWRGGITYADSVKGRFTISRDNAKNTVYLQLNSLKPEDTAVYYCARRGYGAGPSYRLGDYWGQGTQVTVSS”: “low polyreactivity”.
As for “QVQLVESGGGLVQAGGSLRLSCAASGSIFVNYAMGWYRQAPGKERELVAAITDGGRTYYADSVKGRFTISRDNAKNTVYLQMNSLKPEDTAVYYCAVDGIRYWGSRDESGYDYWGQGTQVTVSS”, the “polyreactivity (PSR sort gate)” value is on record as “low polyreactivity”.
In the case of “QVQLVESGGGLVQAGGSLRLSCAASGSIFVPNAMGRYRQAPGKERELVAAITSGGSTYYADSVKGRFTISRDNAKNTVYLQMNSLKPEDTAVYYCAADIGSQYFGHYDYWGQGTQVTVSS” it was “high polyreactivity”.
The same measure for “QVQLVESGGGLVQAGGSLRLSCAASGSIFVPYAMGWYRQAPGKERELVAAISYSGGTTYADSVKGRFTISRDNAKNTVYLQMNRVKPEDTAVYYCAARYWRRWRQSVSLDYWGQGSQVTVSS”: “high polyreactivity”.
In the case of “QVQLVESGGGLVQAGGSLRLSCAASGSIFVPYAMGWYRQAPGKERELVAAITRSSGSTYYADSVKGRFTISRDNAKNTVYLQMNSLKPEDTAVYYCAADFLLEFDYWGQGTQVTVSS”, the “polyreactivity (PSR sort gate)” value is listed as “low polyreactivity”.
Regarding “QVQLVESGGGLVQAGGSLRLSCAASGSIFVPYAMGWYRQAPWKERELVAAISRGGDTNYADSVKGRFTISRDKAKNTVYLQMNSLIPEDTAVSYCNRARHQYSRWHGGYYYWGQCTQVTVSS”, the “polyreactivity (PSR sort gate)” value is “low polyreactivity”.
In the case of “QVQLVESGGGLVQAGGSLRLSCAASGSIFVPYAMGWYRQEPGKERELVAAISRRGGRTNYADSVKGRFTISRDNAKNTVYLQMNSLKPEDTAVYYCADGWRGVYYTRYDSWGQGTQVTVSS” it was “high polyreactivity”; in that of “QVQLVESGGGLVQAGGSLRLSCAASGSIFVPYARGWYRQAPGKERELVAAISNGDSTYYADSVKGRFTISRDNAKNTVYLQMNSLKPEDTAVYYCAADAVKASVSYIVPYAAYDYWGQGTQVTVSS”, “low polyreactivity”; in that of “QVQLVESGGGLVQAGGSLRLSCAASGSIFVPYDMGWYRQAPGKERELVAVISTDDGTYYADSVKGRFTISRDNAKNTVYLQMNSLKPEDTAVYYCAADRWYREYDYWGQGTQVTVSS”, “low polyreactivity”.
On to “QVQLVESGGGLVQAGGSLRLSCAASGSIFVQYAMGWCRQAPGKDRELVAAISDSGGSTYYADSVKGRFTISRDNAKNTVYVQMNSLKPEDTAVYYCAAVSTNSYSHRFGWGQGTQVTVSS”, for which the “polyreactivity (PSR sort gate)” value is given as “low polyreactivity”.
The same measure for “QVQLVESGGGLVQAGGSLRLSCAASGSIFVRNAMGWYRQAPGKERELVAAISGSGGRTYYADSVKGRFTISRDIAKNTVYLQMNSLKPEDTAVYYCARVPSGQLEYDYWGQGTQVTVSS”: “high polyreactivity”.
In the case of “QVQLVESGGGLVQAGGSLRLSCAASGSIFVRNGMGWYRQAPGKERELVASITSGTITYYADSVKGRFTISRDNAKNTVYLQMNSLKPEDTAVYYCAAYQYPADFKLYYYWGQGTQVTVSS” it was “high polyreactivity”; in that of “QVQLVESGGGLVQAGGSLRLSCAASGSIFVSEYVMGWYRQAPGKERELVARIRWSSGSTYYADSVKGRFTISRDNAKNTVYLQMNSLKPEDTAVYYCAKATSSFYHYRYDYWGQGTQVTVSS”, “low polyreactivity”.
In the case of “QVQLVESGGGLVQAGGSLRLSCAASGSIFVSEYVMGWYRQAPGKERELVARIRWSSGSTYYADSVKGRFTISRDNAKNTVYLQMNSLKPEDTAVYYCNKDYYYVIGWTYHRSYHYDYWGQGTQVTVSS” it was “low polyreactivity”.
Consider “QVQLVESGGGLVQAGGSLRLSCAASGSIFVSYAMGWYRQAPGKDRELVAAITSAGTTYYADSVKGRFTISRDNAKNTVYLQMNSLNPEDTAVYYCNTDASFKRTRVSPETEYGYWGQGTQVTVSS”, for which the “polyreactivity (PSR sort gate)” value is “low polyreactivity”.
In the case of “QVQLVESGGGLVQAGGSLRLSCAASGSIFVSYAMGWYRQAPGKERELVAAITRGGSTNYADSVKGRFTISRDNAKNTVYLQMNSLKPEDTAVYYCAAAYRRGGPPLDYWGQGTQVTVSS” it was “low polyreactivity”; in that of “QVQLVESGGGLVQAGGSLRLSCAASGSIFVSYAMGWYRQAPGKERELVAAITSAGTTYYADSVKGRFTISRDNAKNTVYLQMNSLKQEDTAVYYCNTDASFKRTRVSPETEYGYWGQGTQVTVSS”, “low polyreactivity”.
For the sequence “QVQLVESGGGLVQAGGSLRLSCAASGSIFVSYAMGWYRQAPGKERELVAAITVSGGSTYYADSVKGRFTISRDNAKNTVYLQMNSLKPEDTAVYYCAADSWDDWVVEFYYWGQGTQVTVSS”, the “polyreactivity (PSR sort gate)” value is on record as “low polyreactivity”.
In the case of “QVQLVESGGGLVQAGGSLRLSCAASGSIFVSYAMGWYRQAPGKERELVAAITVSGGSTYYADSVKGRFTISRDNAKNTVYLQMNSMKPEDTAVYYCAADSWDDWVVEFYYWGQGTQVTVSS” it was “low polyreactivity”; in that of “QVQLVESGGGLVQAGGSLRLSCAASGSIFVTNAMAWYSQAPGKERELVAAISWRGGSTYYADSVKGRFTISRDNAKNTVYLQMNSLKPEDTAVYYCNTYHPYWGSGFDYWGQGTEVTVSS”, “low polyreactivity”; in that of “QVQLVESGGGLVQAGGSLRLSCAASGSIFVTNAMGWYRQAPGKERELVAAISGGADSTYADSVKGRFTISRDNAKNTVYFQMNSLKPEDTAVYYCAAKVRGWHYYYWGQGTQVTVSS”, “low polyreactivity”.
“QVQLVESGGGLVQAGGSLRLSCAASGSIFVTNAMGWYRQAPGKERELVAAISGGADSTYADSVKGRFTISRDNAKNTVYLQMNSLKPEDTAVYYCAAKVRGWHYYYCGQGTQVTVSS”: the “polyreactivity (PSR sort gate)” value is given as “low polyreactivity”.
In the case of “QVQLVESGGGLVQAGGSLRLSCAASGSIFVTNAMGWYRQAPGKERELVAAISVSGGSTYYADSVKGRFTISRDKAKNTVYLQMNSLKPEDTAVYYCNTVRSPPGHDYWGLGTQVTVSS” it was “low polyreactivity”.
“QVQLVESGGGLVQAGGSLRLSCAASGSIFVTYAMGWYRQAPGKERELVAAINYSGGSTYYADSVKGRFTISRDNAKNTVYLQMNSVKPEDTAVYYCAATTRYYSYGYWGQGTQVTVSS”: the “polyreactivity (PSR sort gate)” value was “low polyreactivity”.
The same measure for “QVQLVESGGGLVQAGGSLRLSCAASGSIFVTYAMGWYRQAPGKERELVASITLSGGSTYYADSVKGRFTISRDNAKNTVYFQKNSLKPEDTEVYYCNAEGTSWTSTRFDYWGQGTQVTVSS”: “high polyreactivity”; for “QVQLVESGGGLVQAGGSLRLSCAASGSIFVVNAMGWYRQAPGKERELVAAIRLSGGSTYYADSVKGRFTISRDNAKNTVYLQMNSLKPEDTAVYDCAARYRELRTEYYYWGQGTQVTVSS”: “high polyreactivity”.
As to “QVQLVESGGGLVQAGGSLRLSCAASGSIFVVYAMGWSREGPGKERELVAAISWGIGSTYYADSVKGRFTISRDNAKNTVYLQPNSLKPEDTAVYYCAADTDIVLYDYWGQGTQVTVSS”, the “polyreactivity (PSR sort gate)” value was “low polyreactivity”.
As to “QVQLVESGGGLVQAGGSLRLSCAASGSIFVWYDLGWSRQAPGKERELVATISLSGVSTYYADSVKGRFTISRDTAKNTVYLQMISLKPEDTAVYYCAADFVEQGVDDFWGQGSQVTVSS”, the “polyreactivity (PSR sort gate)” value is on record as “low polyreactivity”.
Turning to “QVQLVESGGGLVQAGGSLRLSCAASGSIFVYNAMGWYRKATGKERELVAGITFIGGSTYYADSVKGRFTISRDNAKNTVYLQMNSLKPEDTAVYYCNADVAPGIFYGYDSWGQGTQVTVSS”, the “polyreactivity (PSR sort gate)” value is recorded as “low polyreactivity”.
